Test: soluble on expression in E. coli; label from the status in PepcDB or PDB records
In the case of “MFRHVAQNLGSRNTSIQSYRLLRTRWERGYLKDLYHRRQILGADPAISRSSYPNCSVQVRNHHCSADKSTLQWAPIKTSIDNSSDDFAANTAEMKVLVEDLKAKISKIEQAGGEKAVKLHRSRGKMLARERIDGIVDAGSPFIEFSQLAGYEMYGKEEVPSGGILTGVGIVSGRVCVIVANDATVKGGTYYPITVKKHLRAQEIARENKLPCIYLVDSGGANLPRQADIFADSQHFGRIFYNQATMSSEGIPQLAVVMGSCTAGGAYVPAMSDQAIIVKGTGTVFLGGPPLVKAATGEEISAEELGGADLHCGESGVTDYYAHNDKHALYLARSCIAGLPPVEEHMTFNPNADEPLYPAEEIYGIVGSNLKKTYDVREVIARIVDGSRFHEFKERYGETLVTGFATIYGQRVGILANNGVLFAESAMKGSHFIELCCQRKIPLLFLQNITGFMVGRDAEAGGIAKHGAKLVTAVACAKVPKITVLVGGSYGAGNYGMCGRGYSPRYVFMWPNSRISVMGGEQAANVLSTVQKEKKKREGADWTDQQDLELRKPVEEKFEKEGHPYFASARLWDDGVIDPKDTRKVLGLAFQSTLQKPIPETKFGVFRM”, the “soluble on expression in E. coli” value is reported as “not soluble”. With “AEVTQLSNGIVVATEHNPSAHTASVGVVFGSGAANENPYNNGVSNLWKNIFLSKENSAVAAKEGLALSSNISRDFQSYIVSSLPGSTDKSLDFLNQSFIQQKANLLSSSNFEATKKSVLKQVQDFEDNDHPNRVLEHLHSTAFQNTPLSLPTRGTLESLENLVVADLESFANNHFLNSNAVVVGTGNIKHEDLVNSIESKNLSLQTGTKPVLKKKAAFLGSEVRLRDDTLPKAWISLAVEGEPVNSPNYFVAKLAAQIFGSYNAFEPASRLQGIKLLDNIQEYQLCDNFNHFSLSYKDSGLWGFSTATRNVTMIDDLIHFTLKQWNRLTISVTDTEVERAKSLLKLQLGQLYESGNPVNDANLLGAEVLIKGSKLSLGEAFKKIDAITVKDVKAWAGKRLWDQDIAIAGTGQIEGLLDYMRIRSDMSMMRW” the “soluble on expression in E. coli” value was “soluble”. With “MSLDTSAPQKYRRILLKVSGEVLMGDTPYGIDTNTVQSVAEDVAEIVKSGVELCLVIGGGNIFRGMAGAAKGMERSSADYMGMLATVMNALAMQDALERIGVETRVQSAIPMATVCEPYIRRRAQRHLEKGRVVIFAAGTGNPFFTTDTAAALRAAEMQCDALFKGTSVDGVYTADPKKDPTAQRYDRLSYMDVLAKDLRVMDASAVALMRDSNIPIVVFSIKGRGNLLTVLRGEGTHTVVAEDEGHHHHHH” the “soluble on expression in E. coli” value was “soluble”. With “MADRRNLFFFYGDDKATLVEKMKPIYRILEENGFTILDHPKNANAIVSVGDDATFLQAVRKTGFREDCLYAGISTKDEISFYCDFHIDHVDTALQEITKNEIEVRKYPTIQVDVDGSTSFHCLNEFSLRSSIIKTFVVDVHVDDLYFETFRGDGLVVSTPTGSTAYNKSLHGAVVDPLIPCFQVSELASLNNNTYRTLGSPFILNHERTLTLKLRPDGNDYPVIGMDNEALSIKQVEKAVVRLSDKQIKTVKLKNNSFWEKVQRTFLLEHHHHHH” the “soluble on expression in E. coli” value was “soluble”. With “QESSGNKIHFINVQEGGSDAIILESNGHFAMVDTGEDYDFPDGSDSRYPWREGIETSYKHVLTDRVFRRLKELSVQKLDFILVTHTHSDHIGNVDELLSTYPVDRVYLKKYSDSRITNSERLWDNLYGYDKVLQTATETGVSVIQNITQGDAHFQFGDMDIQLYNYENETDSSGELKKIWDDNSNSLISVVKVNGKKIYLGGDLDNVHGAEDKYGPLIGKVDLMKFNHHHDTNKSNTKDFIKNLSPSLIVQTSDSLPWKNGVDSEYVNWLKERGIERINAASKDYDATVFDIRKDGFVNISTSYKPIPSFQAGWHKSAYGNWWYQAPDSTGEYAVGWNEIEGEWYYFNQTGILLQNQWKKWNNHWFYLTDSGASAKNWKKIDGIWYYFNKENQMEIGWVQDKEQWYYLDVDGSMKTGWLQYMGQWYYFAPSGEMKMGWVKDKETWYYMDSTGVMKTGEIEVAGQHYYLEDSGAMKQGWHKKANDWYFYKTDGSRAVGWIKDKDKWYFLKENGQLLVNGKTPEGYTVDSSGAWLVDVSIEKSATIKTT” the “soluble on expression in E. coli” value was “soluble”. With “VAVRPVLAVGSYLPHAPWPWGVIDQAARVLLPASTTVRAAVSLPNASAQLVRASGVLPADGTRRAVLYLHGGAFLTCGANSHGRLVELLSKFADSPVLVVDYRLIPKHSIGMALDDCHDGYRWLRLLGYEPEQIVLAGDSAGGYLALALAQRLQEVGEEPAALVAISPLLQLAKEHKQAHPNIKTDAMFPARAFDALDALVASAAARNQVDGEPEELYEPLEHITPGLPRTLIHVSGSEVLLHDAQLAAAKLAAAGVPAEVRVWPGQVHDFQVAASMLPEAIRSLRQIGEYIREATG” the “soluble on expression in E. coli” value was “not soluble”. For “LQTLPPVQLAQKYFQIFSEEKDPLWQDPCEDKRHKDIWSKEKTCDRFPKLLIIGPQKTGTTALYLFLGMHPDLSSNYPSSETFEEIQFFNGHNYHKGIDWYMEFFPIPSNTTSDFYFEKSANYFDSEVAPRRAAALLPKAKVLTILINPADRAYSWYQHQRAHDDPVALKYTFHEVITAGSDASSKLRALQNRCLVPGWYATHIERWLSAYHANQILVLDGKLLRTEPAKVMDMVQKFLGVTNTIDYHKTLAFDPKKGFWCQLLEGGKTKCLGKSKGRKYPEMDLDSRAFLKDYYRDHNIELSKLLYKMGQTLPTWLREDLQNTR”, the “soluble on expression in E. coli” value was “soluble”. For “MFQIYEIFSSVFNFDPKMPENVGVKEDDDKVFAKEIAQLEEEFEANTLKAESLEKEIAYSKVQIETENVKFAAIEQEKAIEIIKLEKQIKIMEAKLDFMKQDPIEIEEIEKLKHRVEEETQRNTEYAESLKYIKEMIRIKKAEKNEKKQKNAIDN”, the “soluble on expression in E. coli” value was “not soluble”. In the case of “GSSHHHHHHSSGLVPRGSQILCVGLVVLDVISLVDKYPKEDSEIRCLSQRWQRGGNASNSCTILSLLGAPCAFMGSMAPGHVADFVLDDLRRYSVDLRYTVFQTTGSVPIATVIINEASGSRTILYYDRSLPDVSATDFEKVDLTQFKWIHIEGRNASEQVKMLQRIDAHNTRQPPEQKIRVSVEVEKPREELFQLFGYGDVVFVSKDVAKHLGFQSAEEALRGLYGRVRKGAVLVCAWAEEGADALGPDGKLLHSDAFPPPRVVDTLGAGDTFNASVIFSLSQGRSVQEALRFGCQVAGKKCGLQGFDGIV”, the “soluble on expression in E. coli” value is reported as “soluble”. With “MGSDKIHHHHHHMIQIKRGKIVGFNERVGRAFHPAQVAEPAQHAPHQRRLARTEVAFQIEGHAGRQAGRKPRAERKRGGLVGKVATRRRGIIRGMHEQDSPRDFGRLAAQIKQWGRELGFAAIGITDADLSAAEAGLHTWLDKGFHGEMDYMAAHGTKRSRPAELVPGTLRIISARLDYFPPDAVDPDTILATPDAAYVSRYALGRDYHKVLRQRLQTLAERIGAAAGEHHFRVFSDSAPVMEVELATRAGLGWRGKHTLLLNRHHGSWFFLGEIYSDLPLPVDAPEAEHCGTCHACLDACPTQAIVAPYSVDARRCISYLTIELKGSIPLELRSLIGNRIYGCDDCQLVCPWNRFAGTAAVPDFAVRNGLDSAQLVDLFAWSEADFNDRLAGSPIRRIGHERWLRNIAVALGNARPAPAIEAALGTRLDHPSAMVREHVAWALARQQER” the “soluble on expression in E. coli” value was “not soluble”. In the case of “GIDPFTAPGQLECETAIAALNSCLRDLDQASLAAVSQQLAPREGISQEALHTQMLTAVQEISHLIEPLASAARAEASQLGHKVSQMAQYFEPLTLAAVGAASKTLSHPQQMALLDQTKTLAESALQLLYTAKEAGGNPKQAAHTQEALEEAVQMMTEAVEDLTTTLNEAASAAG”, the “soluble on expression in E. coli” value is reported as “soluble”. In the case of “MILGTPKADWLAEFPRLADLIALRPSEWFNPAIAPSAEALADVGLGAADVADASARLQRFAPLIARLFPETAASGGIIESDLVEVATFHDALRQHYAAELPGRLWLKRDSHLPISGSIKARGGIYEVLAHAERLALEHGLVGLDDDYSRLAEADCRAFFARHRIAVGSTGNLGLSIGIIGAALGFQASVHMSADARQWKKDKLRAHGVTVVEYASDYSVAVEQGRREAAGDPYTHFVDDENSRDLFLGYAVAAERLRGQLDAAGIRVDSEHPLFVHLPCGVGGGPGGVAFGLKLAFGDAVHCLFAEPTHSPCMFLGVYTGRHEQVSVQDFGIDNRTAADGLAVGRPSGFVGRAMQRLLDGYYTVDDDELFRLLALLERSQGIRLEPSALAGATGIARVTREPQGYRERMGLTSARLANATHLVWATGGGMVPETEMRAYLERGRSLL”, the “soluble on expression in E. coli” value is reported as “not soluble”. In the case of “MSHSQRGLNWFNALSADASEVTGLPASLKVADGLLGEQPVRFVAVIADTNNRFPRARQGEVGLLEGWGLAKAVDDAIEQDRERAEKRALIAIVDVPSQAYGRREEALGIHQALAGAVDSYARARLAGHPVIGLLVGKAMSGAFLAHGYQANRLIALRDPGVMVHAMGKASAARVTQRSVDDLEKLAASIAPMAYDIDSYASLGLLWETLSVSQIEQPAVDDLTQVRQVLSSAIKDVQASGVDLSSRLGASNRKASAHVRQLLRAQW”, the “soluble on expression in E. coli” value is reported as “not soluble”. For “GSHSLRYFDIAVSRPGLGEPRYISVGYVDDTEFARYDSDAENRRYQPRARWMEREGPEYWERNTPIYKGKEQTFRVNLRTLRGYYNQSEGGSHTIQEMYGCDVGSDGSLLRGYEQFAYDGRDYIALNEDLKTWTAADFAARISRNKLERDGFADLHRAYLEGECVESLRRYLELGKETLLRSDPPKAHVTLHPRPEGDVTLRCWALGFYPADITLTWQLNGEDLTQDMELVETRPAGDGTFQKWASVVVPLGKEQNYTCRVEHEGLPKPLSQRWEPLEHHHHHH”, the “soluble on expression in E. coli” value was “soluble”. In the case of “MAHHHHHHMLLRASASSTLRTRGASCCSGACTGLYGSGSLTVQQRFIEYWGSGVTGRTQPYAQGDMIPRVDNMRYPVNKATSAAASLTGNQSSIAYDTSSIFQVEGFSPLEKEHYQSLRGSTRHKVESLPPHIGKDVMVLLKNMSEEGLLEEHWWARVVKDFPSMKTPCTAEFKSAWEKFYTEASGVADDNEAVKAISRPFLQTQMQKNYIAYAMVWRVAERLCEAFDAVPHVTVYERRGGRLVVERVTKLMLDTIADEPWAHQETTSPLHVDISNFRAWHEAGYW”, the “soluble on expression in E. coli” value is reported as “not soluble”. For “MFKVNEYFDGTVKSIAFSQAEGQATIGVMAAGEYEFGTAQREIMHVISGELNVKLPDSTDWETFSTGSQFNVPANSKFQLKVSVDTAYLCEYR”, the “soluble on expression in E. coli” value was “not soluble”. With “MRPTDTSNFAPAEISKRKVRRVKANGRERARMHGLNNALDMLREYIPITTQHQKLSKIETLRLARNYIDALQRMLQTNEQPTPLEYAHTLANGLSQTTTNMLANLLQVQPRQLLPPSQFDIFSDPSHHQLHPSHPPPHSSFSSSSPSSSCSPPQYYYSPTQPSAAPLQGSCDPQYQQMYHQHSHQNTFNYSP” the “soluble on expression in E. coli” value was “not soluble”. For “MSAIEVTNLVKKFHGQTVLHGIDLEVKPGEVVAIIGPSGSGKTTLLRCINLLEQPEAGTIKVGDIIIDTARPFSQQKGLIRQLRQHVGFVFQSFNLFPHRTVLENIIEGPVIVKGEPKAEATALARELLAKVGLAGKESRYPRRLSGGQQQRVAIARALAMRPEVILFDEPTSALDPELVGEVLNTIRQLAQEKRTMVIVTHEMSFARDVADRAIFMDQGQIVEQGPAKTLFADPQHPRTRQFLEKFLVK”, the “soluble on expression in E. coli” value was “not soluble”. With “MNQEFFMLSQAMVEHLNEQINLEFFSSNLYLQMSAWCEDKGFDGAAEFLRAHAVEEMQHMQRLFTYVSETGALPILGAIAAPRHDFASLGEVFRETYQHEQKITQQINKLAHVAFTSQDYSTFNFLQWYVAEQHEEEKLFKGILDKLELVGEDGKALFFIDKDLAALAKKGSSSVMDAPAE” the “soluble on expression in E. coli” value was “not soluble”. For “MIGKNIKSLRKTHDLTQLEFARIVGISRNSLSRYENGTSSVSTELIDIICQKFNVSYVDIVGEDKMLNPVEDYELTLKIEIVKERGANLLSRLYRYQDSQGISIDDESNPWILMSDDLSDLIHTNIYLVETFDEIERYSGYLDGIERMLEISEKRMVA”, the “soluble on expression in E. coli” value was “soluble”.

Reference: the DeepSol protein solubility set
